This is an account of results in patent publication US20220259605A1 (OXFORD UNIVERSITY INNOVATION, published 2022).

This assay addresses T1, human CEACAM5 protein (SinoBiological) (human, UniProt P06731 35-685).
T1 construct: also called human CEA protein; carcinoembryonic antigen
T1 sequence: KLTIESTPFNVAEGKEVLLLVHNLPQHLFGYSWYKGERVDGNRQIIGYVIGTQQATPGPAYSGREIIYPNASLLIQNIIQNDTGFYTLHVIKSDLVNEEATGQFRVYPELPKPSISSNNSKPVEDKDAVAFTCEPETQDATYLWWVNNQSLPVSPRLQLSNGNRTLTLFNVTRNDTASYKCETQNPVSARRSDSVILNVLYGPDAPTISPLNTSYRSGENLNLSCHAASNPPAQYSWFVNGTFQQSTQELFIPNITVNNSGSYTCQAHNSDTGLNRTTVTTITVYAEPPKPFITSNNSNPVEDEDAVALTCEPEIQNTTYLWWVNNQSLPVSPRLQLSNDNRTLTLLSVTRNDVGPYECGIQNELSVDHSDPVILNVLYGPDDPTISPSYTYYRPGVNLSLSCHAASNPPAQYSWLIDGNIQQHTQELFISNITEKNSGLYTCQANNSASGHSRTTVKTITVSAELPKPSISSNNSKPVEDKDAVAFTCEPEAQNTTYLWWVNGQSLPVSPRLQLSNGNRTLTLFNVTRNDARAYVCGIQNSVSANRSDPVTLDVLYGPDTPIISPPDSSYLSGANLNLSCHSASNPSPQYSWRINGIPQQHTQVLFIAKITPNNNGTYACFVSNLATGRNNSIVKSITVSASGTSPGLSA
The assay can be described thus: biological agglutination test.

B1: C43 anti-CEA nanobody, surface-displayed on E. coli through the pNV intimin display system (VHH)
VHH: EVQLVESGGGLVQAGGSLTLSCTSSTLTFTPYRMGWYRQTPGKQRDLVADISPGDGSTKNYAGFAQGRFTISRDNIKNTVYLQMNDLKPEDTAVYYCNTYVAFVGRARTWGQGTQVTVSS
notes: domain: β-intimin domain; also called pNVC43; pNVC43_sfGFP
In the case of B1, the binding result is on record as “binds”.
